Results from patent publication US20230416329A1 (INSTITUTE OF MATERIA MEDICA CHINESE ACADEMY OF MEDICAL …, published 2023).
Bridge positions count the residues as written; N and C are the ends. Ends that are not written are not given here.

B1: PCSK9_2 (peptide)
peptide: TVFTSWEEALDWVCGRATKSIPPICF
modifications: disulfide 14-25 (inferred)
notes: Hybrid of the Pep2-8 analogue with the anti-trypsin scaffold BT9; A disulfide bond joins the two Cys of the scaffold
B2: PCSK9_3 (peptide)
peptide: CGRATKSIPPICFGTVFTSWEEALDWV
modifications: disulfide 1-12 (inferred)
notes: Hybrid with the anti-trypsin scaffold BT9; A disulfide bond joins the two Cys of the scaffold
B3: PCSK9_4 (peptide)
peptide: WEEALDWVCGRATKSIPPICFTVFTS
modifications: disulfide 9-20 (inferred)
notes: A disulfide bond joins the two Cys of the scaffold
B4: PCSK9_5 (peptide)
peptide: WEEALDWVCGRATKSIPPICFGTVFTS
modifications: disulfide 9-20 (inferred)
notes: as for B2
B5: PCSK9_6 (peptide)
peptide: WEEYLDYVCGRATKSIPPICFGTVFTS
modifications: disulfide 9-20 (inferred)
notes: as for B2
B6: PCSK9_7 (peptide)
peptide: TVFTSGCGRATKSIPPICFWEEYLDWV
modifications: disulfide 7-18 (inferred)
notes: as for B2
B7: PCSK9_8 (peptide)
peptide: TVFTSGCGRATKSIPPICFSWEEYLDWV
modifications: disulfide 7-18 (inferred)
notes: as for B2
B8: PCSK9_9 (peptide)
peptide: TVFTSGRCTKSIPPICFWEEYLDWV
modifications: disulfide 8-16 (inferred)
notes: Hybrid with the anti-trypsin scaffold BT45; A disulfide bond joins the two Cys of the scaffold
B9: PCSK9_2CH (peptide)
peptide: TVFTSWEEALDWVGFCTYSIPPQCYG
modifications: disulfide 16-24 (inferred)
notes: Contains an anti-chymotrypsin scaffold, with a disulfide bond between its two Cys
B10: PCSK9_3CH (peptide)
peptide: FCTYSIPPQCYGGTVFTSWEEALDWV
modifications: disulfide 2-10 (inferred)
notes: as for B9
B11: PCSK9_3EC (peptide)
peptide: ICTASIPPICQGTVFTSWEEALDWV
modifications: disulfide 2-10 (inferred)
notes: Contains an anti-elastase scaffold, with a disulfide bond between its two Cys

biological target: T1, PCSK9 protein (UniProt Q8NBP7 31-692, limits assumed); assay: PCSK9-LDLR in vitro binding assay kit, OD450/540; peptide 50 µM, PCSK9 75 ng/mL; inhibition of PCSK9 binding to LDLR
T1 construct: Kit reagent; also called proprotein convertase subtilisin/kexin type 9

Binder	Inhibitory rate (%)
B1	89.9%
B2	89.9%
B3	41.4%
B4	77.9%
B5	87%
B6	80.7%
B7	75.7%
B8	93.9%
GTNEALDNNCGRATKSIPPICFYVANDLKI (disulfide 10-21 (inferred)) [PCSK9_10]	-18.5%
GTNEALDNNCGRATKSIPPICFVANDLK (disulfide 10-21 (inferred)) [PCSK9_11]	3.6%
WEEALDWVCGRATKSIPPICFGYVANDLKI (disulfide 9-20 (inferred)) [PCSK9_12]	44.7%
GTNEALDNNCGRATKSIPPICFGTVFTS (disulfide 10-21 (inferred)) [PCSK9_14]	-8.7%
B9	100%
B10	99.2%
B11	99.6%
